This note sets out measurements from patent EP4428150A1 (Peptide Logic LLC, dated 2024).

Test [1] deals with T1, mouse PRL (mouse, UniProt P06879 30-226).
T1 sequence (looked up): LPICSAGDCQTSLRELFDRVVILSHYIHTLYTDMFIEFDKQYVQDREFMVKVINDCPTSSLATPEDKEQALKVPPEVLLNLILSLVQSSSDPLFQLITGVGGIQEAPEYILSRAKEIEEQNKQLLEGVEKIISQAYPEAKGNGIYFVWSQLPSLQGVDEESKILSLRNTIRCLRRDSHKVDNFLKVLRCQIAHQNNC
Kind of test: bio-layer interferometry (Octet-RED96), antibody captured on anti-human IgG Fc sensors; kinetics not determined.

Test [2] concerns the target T2, human prolactin (human, UniProt P01236 29-227).
T2 construct: also called hPRL; Human PRL
T2 sequence (looked up): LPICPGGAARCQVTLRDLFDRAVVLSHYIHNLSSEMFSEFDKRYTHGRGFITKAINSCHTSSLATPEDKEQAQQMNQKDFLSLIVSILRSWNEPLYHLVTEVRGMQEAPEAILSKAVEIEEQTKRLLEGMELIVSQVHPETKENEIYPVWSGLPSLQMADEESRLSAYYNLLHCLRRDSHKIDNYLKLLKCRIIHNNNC
Kind of test: bio-layer interferometry (Octet-RED96), antibody captured on anti-human IgG Fc sensors, 1:1 global fit.

In test [3] the target is T2, human prolactin. Kind of test: cell-based or functional assay.
The next test concerns the target human growth hormone (human, UniProt P01241 27-217). Kind of test: cell-based or functional assay.
In test [4] the target is T3, cynomolgus monkey PRL (cynomolgus monkey, UniProt A0A2K5X975 30-228).
T3 sequence: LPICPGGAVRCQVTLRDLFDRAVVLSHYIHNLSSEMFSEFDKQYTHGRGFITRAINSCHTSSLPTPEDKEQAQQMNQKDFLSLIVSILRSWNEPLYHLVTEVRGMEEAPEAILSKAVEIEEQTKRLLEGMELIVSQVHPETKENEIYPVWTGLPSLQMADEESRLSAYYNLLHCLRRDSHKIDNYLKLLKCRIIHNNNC
Kind of test: cell-based or functional assay.

For test [5], the target named is T1, mouse PRL. Kind of test: cell-based or functional assay.
Another test has as its target human placental lactogen (human, UniProt P0DML2 27-217). The experiment in a line: cell-based or functional assay.
Test [6] concerns the target T3, cynomolgus monkey PRL. The experiment in a line: bio-layer interferometry (Octet-RED96), antibody captured on anti-human IgG Fc sensors, 1:1 fit.

Where only a bound is given, the exact number is not on record here.

Sequence of human placental lactogen (P0DML2 27-217 limits assumed): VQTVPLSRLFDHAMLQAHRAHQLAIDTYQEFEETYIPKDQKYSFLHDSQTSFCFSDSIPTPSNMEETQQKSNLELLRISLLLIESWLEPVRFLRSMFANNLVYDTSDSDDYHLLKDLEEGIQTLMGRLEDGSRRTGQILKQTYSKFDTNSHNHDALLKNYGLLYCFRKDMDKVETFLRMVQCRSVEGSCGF
Sequence of human growth hormone (P01241 27-217 limits assumed): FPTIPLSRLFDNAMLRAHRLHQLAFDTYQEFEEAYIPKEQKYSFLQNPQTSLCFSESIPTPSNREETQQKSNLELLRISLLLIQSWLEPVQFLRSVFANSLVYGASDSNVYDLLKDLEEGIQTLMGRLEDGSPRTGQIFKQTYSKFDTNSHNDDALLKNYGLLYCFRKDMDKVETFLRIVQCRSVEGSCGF

B1: Antibody 37 (antibody, human IgG4 S228P, kappa, V domains shown)
VH: QVQLVQSGAEVKKPGASVKVSCKASGYTFSNFWIEWVRQAPGQRLEWMGEIFPGTGSTYYTEKFKVRVTITRDTSASTAYMELSSLRSEDTAVYYCARRGYSDSWFAHWGQGTLVTVSS
VL: DIQMTQSPSSLSASVGDRVTITCRASESVDMYGKSFMHWYQQKPGKAPKLLIYRASTLESGVPSRFSGSGSGTDFTLTISSLQPEDFATYYCQQNVEAPLTFGGGTKVEIKR
notes: Humanized IgG4(S228P), IGHV1-3 heavy and IGKV1-39 light frameworks; also called humanized anti-hPRL antibody
With B1, the equilibrium dissociation constant (Kd) with mouse PRL [1] was over 100 nM; with human prolactin [2], 0.621 nM; in the test with cynomolgus monkey PRL [6], 0.565 nM. Further, the koff with human prolactin [2] was found to be 0.000215 s⁻¹; with cynomolgus monkey PRL [6], 0.000307 s⁻¹. The figures for the kon with human prolactin [2] and with cynomolgus monkey PRL [6] were 347000 M⁻¹ s⁻¹ and 543000 M⁻¹ s⁻¹, respectively. For the same molecule, the “IC50 in the in vitro CHO-hPRLR phospho-STAT5 cell signaling assay” value with human prolactin [3] is 3.1 nM; in the test with human growth hormone, over 150 nM; in the test with cynomolgus monkey PRL [4], 4.7 nM; in the test with mouse PRL [5] it was over 150 nM; with human placental lactogen it was over 3620 nM.
